Results on nine molecules are retold here after patent US9340579B2, “DPP-4 inhibitor” (NIPPI, INCORPORATED, priority 2011, dated 2016).

Square brackets hold non-standard residues; d marks the D form. Ends that are not written are not given here. Hyp = O=C(O)[C@@H]1C[C@@H](O)CN1

The test deals with DPP-4 (manufactured by Sigma, derived from porcine kidney) (porcine, UniProt P22411 38-766, limits assumed). Description: cell-based or functional assay.
Sequence of DPP-4 (manufactured by Sigma, derived from porcine kidney) (P22411 38-766 limits assumed): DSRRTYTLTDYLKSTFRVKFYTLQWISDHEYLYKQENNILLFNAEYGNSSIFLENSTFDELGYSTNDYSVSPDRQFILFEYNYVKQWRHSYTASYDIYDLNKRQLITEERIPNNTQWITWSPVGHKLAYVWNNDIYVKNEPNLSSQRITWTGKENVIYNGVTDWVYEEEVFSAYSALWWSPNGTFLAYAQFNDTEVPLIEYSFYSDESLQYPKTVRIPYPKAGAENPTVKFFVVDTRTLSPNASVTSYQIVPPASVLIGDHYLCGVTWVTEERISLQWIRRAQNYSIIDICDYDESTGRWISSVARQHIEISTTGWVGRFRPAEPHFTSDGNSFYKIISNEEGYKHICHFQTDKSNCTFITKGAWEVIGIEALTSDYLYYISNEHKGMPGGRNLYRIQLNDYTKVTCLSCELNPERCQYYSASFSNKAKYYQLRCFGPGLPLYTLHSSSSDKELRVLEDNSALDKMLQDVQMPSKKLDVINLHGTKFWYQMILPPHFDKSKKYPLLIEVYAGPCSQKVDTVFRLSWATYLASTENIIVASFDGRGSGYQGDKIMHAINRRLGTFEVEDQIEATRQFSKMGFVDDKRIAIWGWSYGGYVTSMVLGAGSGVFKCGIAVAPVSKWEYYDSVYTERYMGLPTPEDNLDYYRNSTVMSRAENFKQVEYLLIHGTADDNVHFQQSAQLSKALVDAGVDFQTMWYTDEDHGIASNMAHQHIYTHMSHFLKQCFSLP

For Ala-[Hyp] [Ala-Hyp], the “Inhibition rate (%) at 0.35 mg/ml time” value was 0%.
For the molecule Pro-[Hyp]-Gly [Pro-Hyp-Gly], the “IC50 value” is 4640 µM and the “Inhibition rate (%) at 0.35 mg/ml time” value is 27.2%.
The matching figures for Ala-[Hyp]-Gly [Ala-Hyp-Gly]: 9450 µM and 14.6%.
With [Hyp]-Gly [Hyp-Gly], the “Inhibition rate (%) at 0.35 mg/ml time” value was 0%.
Turning to L[Hyp]GPA [Leu-Hyp-Gly-Pro-Ala], the “IC50 value” came out at 830 µM and the “Inhibition rate (%) at 0.35 mg/ml time” value came out at 52.1%.
As for Phe-[Hyp] [Phe-Hyp], the “Inhibition rate (%) at 0.35 mg/ml time” value turned out to be 0%.
For the molecule Leu-[Hyp]-Gly [Leu-Hyp-Gly], the “IC50 value” is 130 µM and the “Inhibition rate (%) at 0.35 mg/ml time” value came out at 89.3%.
As for Pro-[Hyp] [Pro-Hyp], the “Inhibition rate (%) at 0.35 mg/ml time” value was 0%.
For Ile-[Hyp]-Gly [Ile-Hyp-Gly], the “IC50 value” turned out to be 500 µM and the “Inhibition rate (%) at 0.35 mg/ml time” value was 71%.
